According to the Human Domainome abundance scans (Beltran et al. 2025):
± gives the uncertainty stated by the source.

B1: Transcription factor SOX-11, residues 50 to 117; numbered along this chain, P35716 (parent)
chain: KRPMNAFMVWSKIERRKIMEQSPDMHNAEISKRLGKRWKMLKDSEKIPFIREAERLRLKHMADYPDYK

Variants of: B1
Experiment: abundance fitness (aPCA) (normalised: wild type 0, dead -1); higher = more abundant; growth selection in yeast, the domain comes from the species named
Conditions: Homo sapiens

F49T and F49S are within error of each other in abundance fitness: -0.558 ± 0.097 for the first, -0.566 ± 0.065 for the second.

F49I and F49A are within error of each other in abundance fitness: -0.694 ± 0.074 for the first, -0.761 ± 0.093 for the second.

First: K42W
Second: K42C
The abundance fitness of the first is lower: -0.706 ± 0.16 for the first, -0.424 ± 0.061 for the second.

First: K42N
Second: K42G
The abundance fitness of the first is higher: 0.051 ± 0.05 for the first, -0.221 ± 0.063 for the second.

K42E and K42L are within error of each other in abundance fitness: -0.387 ± 0.17 for the first, -0.315 ± 0.056 for the second.

First: K42R
Second: K42I
The abundance fitness of the first is higher: -0.278 ± 0.064 for the first, -0.526 ± 0.072 for the second.

Compared with D66A, D66V is lower in abundance fitness: -0.206 ± 0.14 for the first, -0.545 ± 0.18 for the second.

Going from D66T to D66E, the abundance fitness rises from -0.657 ± 0.24 to 0.247 ± 0.18.

D66H and D66S are within error of each other in abundance fitness: -0.115 ± 0.18 for the first, -0.368 ± 0.091 for the second.

P65R and P65S are within error of each other in abundance fitness: -0.495 ± 0.43 for the first, 0.269 ± 0.36 for the second.

First: P65V
Second: A6Q
The abundance fitness of the first is higher: -0.013 ± 0.47 for the first, -1.05 ± 0.33 for the second.

A6H and A6L are within error of each other in abundance fitness: -0.553 ± 0.088 for the first, -0.666 ± 0.087 for the second.

Going from M40C to M40F, the abundance fitness falls from -0.191 ± 0.053 to -0.404 ± 0.065.

M40N and M40H are within error of each other in abundance fitness: -0.022 ± 0.059 for the first, -0.119 ± 0.062 for the second.

Going from M40E to M40W, the abundance fitness falls from 0.354 ± 0.19 to -0.503 ± 0.24.

M40Y and S22V are within error of each other in abundance fitness: -0.383 ± 0.058 for the first, -0.442 ± 0.064 for the second.

First: S22R
Second: S22P
The abundance fitness of the first is higher: -0.513 ± 0.091 for the first, -0.841 ± 0.16 for the second.

First: S22T
Second: S22G
The abundance fitness of the first is higher: -0.072 ± 0.064 for the first, -0.587 ± 0.075 for the second.

S22K and S22M are within error of each other in abundance fitness: -0.352 ± 0.19 for the first, -0.302 ± 0.12 for the second.

Going from S22D to S22I, the abundance fitness falls from 0.042 ± 0.059 to -0.539 ± 0.066.

K1F and K1Y are within error of each other in abundance fitness: 0.113 ± 0.076 for the first, 0.032 ± 0.065 for the second.

First: K1G
Second: I47C
The abundance fitness of the first is higher: 0.103 ± 0.058 for the first, -0.567 ± 0.048 for the second.

Compared with I47V, R55H is lower in abundance fitness: -0.097 ± 0.041 for the first, -0.213 ± 0.06 for the second.

R55M and R55C are within error of each other in abundance fitness: -0.521 ± 0.15 for the first, -0.416 ± 0.057 for the second.

R55G and R2E are within error of each other in abundance fitness: -0.313 ± 0.055 for the first, -0.165 ± 0.15 for the second.

Going from R2L to R2W, the abundance fitness falls from 0.037 ± 0.063 to -0.97 ± 0.34.

R2D and R2F are within error of each other in abundance fitness: 0.146 ± 0.069 for the first, 0.091 ± 0.075 for the second.

First: R2C
Second: Q21K
The abundance fitness of the first is higher: 0.041 ± 0.054 for the first, -0.303 ± 0.21 for the second.

Q21C and Q21R are within error of each other in abundance fitness: -0.323 ± 0.055 for the first, -0.235 ± 0.068 for the second.

Q21G and Q21N are within error of each other in abundance fitness: -0.256 ± 0.057 for the first, -0.156 ± 0.056 for the second.

First: Q21F
Second: Q21W
The abundance fitness of the first is lower: -0.661 ± 0.081 for the first, -0.313 ± 0.15 for the second.

Q21M and Q21L are within error of each other in abundance fitness: -0.35 ± 0.11 for the first, -0.353 ± 0.064 for the second.

Going from Q21S to E54I, the abundance fitness falls from -0.172 ± 0.047 to -0.751 ± 0.091.

Compared with E54N, E54T is lower in abundance fitness: -0.241 ± 0.063 for the first, -0.7 ± 0.12 for the second.

Compared with E54Q, E54K is lower in abundance fitness: -0.364 ± 0.16 for the first, -0.826 ± 0.24 for the second.

First: E54Y
Second: E54F
The abundance fitness of the first is higher: -0.335 ± 0.067 for the first, -0.762 ± 0.085 for the second.

Compared with E54D, E54L is lower in abundance fitness: -0.323 ± 0.066 for the first, -0.601 ± 0.083 for the second.

Going from M4D to M4L, the abundance fitness falls from 0.059 ± 0.065 to -0.188 ± 0.064.

Going from M4R to M4I, the abundance fitness rises from -0.874 ± 0.11 to 0.158 ± 0.05.

Compared with M4H, M4Y is higher in abundance fitness: -0.423 ± 0.086 for the first, -0.256 ± 0.06 for the second.

L58V and L58W are within error of each other in abundance fitness: -0.101 ± 0.052 for the first, -0.222 ± 0.16 for the second.

L58M and L58S are within error of each other in abundance fitness: -0.149 ± 0.13 for the first, -0.047 ± 0.046 for the second.

First: L58D
Second: L58G
The abundance fitness of the first is higher: 0.188 ± 0.056 for the first, -0.076 ± 0.054 for the second.

First: S44T
Second: S44Y
The abundance fitness of the first is lower: -0.215 ± 0.082 for the first, -0.024 ± 0.072 for the second.

Going from S44D to H26W, the abundance fitness falls from 0.169 ± 0.066 to -0.388 ± 0.2.

Compared with H26T, H26Q is lower in abundance fitness: 0.453 ± 0.058 for the first, 0.064 ± 0.095 for the second.

Compared with V9I, V9R is lower in abundance fitness: 0.037 ± 0.053 for the first, -0.926 ± 0.14 for the second.

V9W and V9H are within error of each other in abundance fitness: -0.411 ± 0.19 for the first, -0.402 ± 0.087 for the second.

Going from V9D to V9L, the abundance fitness rises from -0.671 ± 0.12 to 0.177 ± 0.054.

Going from A62Q to A62L, the abundance fitness falls from 0.146 ± 0.096 to -0.123 ± 0.044.

First: A62K
Second: A62D
The abundance fitness of the first is lower: -0.085 ± 0.08 for the first, 0.092 ± 0.05 for the second.

First: A62V
Second: K46I
The abundance fitness of the first is higher: -0.139 ± 0.047 for the first, -0.595 ± 0.065 for the second.

M25G and M25E are within error of each other in abundance fitness: -0.759 ± 0.071 for the first, -0.739 ± 0.23 for the second.

M25W and M25H are within error of each other in abundance fitness: -0.715 ± 0.12 for the first, -0.641 ± 0.11 for the second.

I18S and I18N are within error of each other in abundance fitness: -0.732 ± 0.083 for the first, -0.625 ± 0.097 for the second.

Going from I18P to M61C, the abundance fitness rises from -0.619 ± 0.21 to 0.107 ± 0.05.

Going from M61Y to M61I, the abundance fitness rises from -0.096 ± 0.052 to 0.011 ± 0.048.

Going from M61Q to I30W, the abundance fitness falls from 0.077 ± 0.11 to -0.611 ± 0.14.

Going from I30S to I30K, the abundance fitness falls from -0.682 ± 0.071 to -1.09 ± 0.26.

Compared with I30R, I30Y is higher in abundance fitness: -0.879 ± 0.11 for the first, -0.596 ± 0.065 for the second.

I30P and A53K are within error of each other in abundance fitness: -0.708 ± 0.13 for the first, -1.12 ± 0.34 for the second.

A53S and A53F are within error of each other in abundance fitness: -0.506 ± 0.056 for the first, -0.64 ± 0.081 for the second.

A53L and A53H are within error of each other in abundance fitness: -0.747 ± 0.095 for the first, -0.741 ± 0.1 for the second.

H60F and H60P are within error of each other in abundance fitness: -0.078 ± 0.058 for the first, -0.142 ± 0.079 for the second.

First: H60D
Second: H60E
The abundance fitness of the first is lower: 0.136 ± 0.062 for the first, 0.406 ± 0.14 for the second.

First: E29L
Second: E29K
The abundance fitness of the first is lower: -0.798 ± 0.093 for the first, -0.363 ± 0.3 for the second.

Compared with E29R, P23Q is higher in abundance fitness: -1.1 ± 0.13 for the first, -0.706 ± 0.24 for the second.

Compared with P23H, K59F is higher in abundance fitness: -0.791 ± 0.1 for the first, -0.166 ± 0.054 for the second.

Going from K59W to K59D, the abundance fitness rises from -0.323 ± 0.15 to -0.052 ± 0.061.

K59E and K59H are within error of each other in abundance fitness: 0.084 ± 0.16 for the first, 0.106 ± 0.06 for the second.

N27W and N27Q are within error of each other in abundance fitness: 0.105 ± 0.1 for the first, 0.205 ± 0.11 for the second.

N27F and P48V are within error of each other in abundance fitness: -0.128 ± 0.056 for the first, -0.261 ± 0.077 for the second.

P48C and P48A are within error of each other in abundance fitness: -0.634 ± 0.087 for the first, -0.664 ± 0.14 for the second.

Compared with D43L, D43G is lower in abundance fitness: -0.077 ± 0.052 for the first, -0.402 ± 0.061 for the second.

D43Y and D43M are within error of each other in abundance fitness: -0.191 ± 0.047 for the first, -0.079 ± 0.11 for the second.

Compared with D43S, Y67M is higher in abundance fitness: -0.339 ± 0.055 for the first, 0.222 ± 0.27 for the second.

Y67P and Y67K are within error of each other in abundance fitness: 0.151 ± 0.11 for the first, -0.007 ± 0.24 for the second.

Y67F and Y67T are within error of each other in abundance fitness: -0.097 ± 0.093 for the first, -0.044 ± 0.12 for the second.

First: Y67S
Second: Y67R
The abundance fitness of the first is higher: 0.175 ± 0.073 for the first, -0.163 ± 0.1 for the second.

Y67L and Y67C are within error of each other in abundance fitness: 0.098 ± 0.083 for the first, -0.048 ± 0.1 for the second.

Compared with Y67N, Y67H is lower in abundance fitness: 0.203 ± 0.053 for the first, 0.089 ± 0.056 for the second.

Y67W and F7W are within error of each other in abundance fitness: 0.17 ± 0.22 for the first, -0.018 ± 0.17 for the second.

F7G and F7T are within error of each other in abundance fitness: -0.765 ± 0.12 for the first, -0.839 ± 0.12 for the second.

Variant E52I has an abundance fitness of -0.278 ± 0.061.
